From patent publication US20050025760A1 (KEIO UNIVERSITY, published 2005)

Assays:
Experiment in all cases: immunoprecipitation of point-mutated molecules (FIG. 5)
Dsg3-M3 = molecular target: T1, Dsg3-M3 (human, UniProt P32926 50-615, V53I; D54N; K55Q; N56K)
T1 construct: extracellular domain; also called point-mutated human Dsg3 molecule M3; not shown: His tag of vector pEVmod-His
T1 sequence (looked up): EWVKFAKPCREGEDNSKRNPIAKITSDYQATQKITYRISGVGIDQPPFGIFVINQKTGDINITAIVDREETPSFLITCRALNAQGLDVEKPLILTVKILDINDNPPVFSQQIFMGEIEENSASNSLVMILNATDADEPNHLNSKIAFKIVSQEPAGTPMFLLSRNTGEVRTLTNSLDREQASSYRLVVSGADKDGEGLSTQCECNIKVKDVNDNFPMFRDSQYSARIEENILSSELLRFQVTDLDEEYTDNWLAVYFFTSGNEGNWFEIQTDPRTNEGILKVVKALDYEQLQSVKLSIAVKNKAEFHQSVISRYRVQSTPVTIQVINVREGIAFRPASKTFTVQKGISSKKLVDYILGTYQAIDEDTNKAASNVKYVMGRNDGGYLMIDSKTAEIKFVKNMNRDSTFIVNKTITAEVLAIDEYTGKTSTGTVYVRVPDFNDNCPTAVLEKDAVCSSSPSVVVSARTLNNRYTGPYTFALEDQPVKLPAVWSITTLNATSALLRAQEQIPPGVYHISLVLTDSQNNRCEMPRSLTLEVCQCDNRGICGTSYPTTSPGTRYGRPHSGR

Dsg3-M5 = molecular target: T2, Dsg3-M5 (human, UniProt P32926 50-615, L75I; T77Y)
T2 construct: extracellular domain; also called point-mutated human Dsg3 molecule M5; not shown: His tag of vector pEVmod-His
T2 sequence (looked up): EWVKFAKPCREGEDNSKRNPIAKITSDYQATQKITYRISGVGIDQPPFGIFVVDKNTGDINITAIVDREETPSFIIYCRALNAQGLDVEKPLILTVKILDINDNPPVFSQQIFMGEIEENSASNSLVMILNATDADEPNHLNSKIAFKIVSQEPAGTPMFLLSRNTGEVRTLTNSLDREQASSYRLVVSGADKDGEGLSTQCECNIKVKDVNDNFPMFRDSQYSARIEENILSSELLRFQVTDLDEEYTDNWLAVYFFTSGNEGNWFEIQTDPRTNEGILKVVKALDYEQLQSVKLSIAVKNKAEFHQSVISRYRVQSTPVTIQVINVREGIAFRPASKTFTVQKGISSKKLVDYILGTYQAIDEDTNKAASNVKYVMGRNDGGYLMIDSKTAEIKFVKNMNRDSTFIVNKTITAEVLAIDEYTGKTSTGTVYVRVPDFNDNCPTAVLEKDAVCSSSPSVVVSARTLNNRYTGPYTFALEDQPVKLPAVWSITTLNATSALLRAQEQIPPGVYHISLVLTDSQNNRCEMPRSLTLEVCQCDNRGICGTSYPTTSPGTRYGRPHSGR

Dsg3-M7 = molecular target: T3, Dsg3-M7 (human, UniProt P32926 50-615, V3I; K7A; P8A)
T3 construct: extracellular domain; also called hDsg3-M7
T3 sequence (looked up): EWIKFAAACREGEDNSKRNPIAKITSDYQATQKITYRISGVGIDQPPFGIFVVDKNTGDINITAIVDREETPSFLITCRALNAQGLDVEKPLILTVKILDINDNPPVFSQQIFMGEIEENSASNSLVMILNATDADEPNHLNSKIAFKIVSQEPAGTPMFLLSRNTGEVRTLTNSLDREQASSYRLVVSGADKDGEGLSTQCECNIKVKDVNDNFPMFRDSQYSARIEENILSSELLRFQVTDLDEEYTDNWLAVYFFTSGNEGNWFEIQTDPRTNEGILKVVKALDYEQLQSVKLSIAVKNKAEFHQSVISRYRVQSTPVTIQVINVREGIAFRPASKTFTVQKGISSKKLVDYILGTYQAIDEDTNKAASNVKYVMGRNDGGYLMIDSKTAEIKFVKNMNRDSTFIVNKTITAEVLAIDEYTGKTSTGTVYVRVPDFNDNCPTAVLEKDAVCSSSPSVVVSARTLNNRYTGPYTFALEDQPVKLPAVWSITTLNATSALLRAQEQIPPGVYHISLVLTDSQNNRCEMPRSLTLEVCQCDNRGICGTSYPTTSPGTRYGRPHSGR

Dsg1-M1-2 = molecular target: T4, Dsg1-M1-2 (human, UniProt Q02413 50-545, H25T; C28Y; A29Q; N31T; Q33K; V34I)
T4 construct: extracellular domain; Dsg1-specific residues changed to the Dsg3-specific ones; also called hDsg1-M1-2
T4 sequence (looked up): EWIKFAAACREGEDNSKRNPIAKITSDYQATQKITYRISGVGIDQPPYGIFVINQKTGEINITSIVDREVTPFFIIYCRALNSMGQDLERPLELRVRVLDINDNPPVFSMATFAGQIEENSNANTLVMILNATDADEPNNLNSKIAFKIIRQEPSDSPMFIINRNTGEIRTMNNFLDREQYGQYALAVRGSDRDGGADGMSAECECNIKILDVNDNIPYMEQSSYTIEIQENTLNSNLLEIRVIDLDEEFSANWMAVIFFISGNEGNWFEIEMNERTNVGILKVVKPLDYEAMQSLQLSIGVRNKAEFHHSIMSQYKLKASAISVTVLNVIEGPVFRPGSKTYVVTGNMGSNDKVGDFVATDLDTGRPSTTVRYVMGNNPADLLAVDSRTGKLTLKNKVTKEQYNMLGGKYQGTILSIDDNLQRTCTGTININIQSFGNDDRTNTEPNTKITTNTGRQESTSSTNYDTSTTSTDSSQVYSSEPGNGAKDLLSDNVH

binding result (Dsg3-M3): binds
binding result (Dsg3-M5): binds
binding result (Dsg3-M7): no binding
binding result (Dsg1-M1-2): no binding
B1: anti-Dsg3 monoclonal antibody AK23 (antibody, mouse IgG1, V domains shown)
VH: QVQLQQSGTELVKPGASVKLSCKSSGYTFTSYWINWVKQRPGQGLEWIGNINPSNGGINYNEKFKSKATLTVDKSSSTAYMQLKSLTSEDSAVYYCARGGYDGYPWGQGTTVTVS
VL: DIQMTQSPKFLLVSAGDRVTITCKASQSVSYDVAWYQQKPGQSPKLLISYASNRYTGVPDRFTGSGYGSDFTFTISTVQTEDLAVYFCQQDYSSPWTFGGGTKLELKR
notes: Mouse IgG1 kappa hybridoma antibody
